In patent US20220409694A1, “POLYPEPTIDE, AND PREPARATION METHOD THEREFOR AND USE THEREOF” (SHANXI JINBO BIO-PHARMACEUTICAL CO., LTD., priority 2020, published 2022):

Columns and labels:
Experiment in all cases: cell-based or functional assay
[1] = molecular target: WIV1-CoV S protein (pcDNA3.1-WIV1-CoV-S, on pseudovirus) (WIV1-CoV (SARS-like virus from bats))
[2] = molecular target: S protein of live 2019-nCoV (SARS-CoV-2) virus (2019-nCoV (SARS-CoV-2)) (UniProt P0DTC2)
[3] = molecular target: 2019-nCoV S protein (2019-nCoV-S, as encoded in pAAV-IRES-EGFP-2019-nCoV-S / pcDNA3.1) (2019-nCoV (SARS-CoV-2)) (UniProt P0DTC2)
[4] = molecular target: Rs3367-CoV S protein (pcDNA3.1-Rs3367-CoV-S, on pseudovirus) (Rs3367-CoV (SARS-like virus from bats))
[5] = molecular target: SARS-CoV S protein (pcDNA3.1-SARS-CoV-S, on pseudovirus) (SARS-CoV) (UniProt P59594)

EK1-chol (peptide) gave an Inhibitory Activity, IC50 (pseudovirus infection of HuH7, luciferase) [1] of 40 nM, an IC50, 2019-nCoV live virus (plaque reduction assay, VERO-E6) [2] of 36.5 nM and an Inhibitory Activity, IC50 (pseudovirus infection of HuH7, luciferase) [3] of 20 nM. It also gave an Inhibitory Activity, IC50 (pseudovirus infection of HuH7, luciferase) [4] of 30 nM and an Inhibitory Activity, IC50 (pseudovirus infection of HuH7, luciferase) [5] of 10 nM.

EK1-plam (peptide) gave an Inhibitory Activity, IC50 (pseudovirus infection of HuH7, luciferase) [1] of 100 nM, an IC50, 2019-nCoV live virus (plaque reduction assay, VERO-E6) [2] of 436 nM and an Inhibitory Activity, IC50 (pseudovirus infection of HuH7, luciferase) [3] of 360 nM. The Inhibitory Activity, IC50 (pseudovirus infection of HuH7, luciferase) [4] was 130 nM and the Inhibitory Activity, IC50 (pseudovirus infection of HuH7, luciferase) [5] was 170 nM.
